Changes are numbered by the printed parent chain. Names may count otherwise. Each block holds one binder with its values, some of them ahead of it.
Assays:
human cardiac troponin T [1] = biological target: T1, human cardiac troponin T (human, UniProt P45379 2-298); assay: SPR (Biacore 8K), 37 C, Fab captured from E. coli lysate by anti-mouse F(ab')2, recombinant human TnT as analyte
T1 construct: Analyte in SPR was 'Recombinant human TnT (Roche, 37 kDa)'; also called cTnT; TnT
Procedure: Detailed kinetic investigations were performed at 37° C. on a GE Healthcare 8k instrument. A Biacore CM-5 series S sensor was mounted into the instrument and was preconditioned according to the manufacturer's instructions. The system buffer was HBS-ET (10 mM HEPES (pH 7.4), 150 mM NaCl, 1 mM EDTA, 0.05% (w/v) Tween® 20). The sample buffer was the system buffer supplemented with 1 mg/ml CMD (Carboxymethyldextran, Fluka). In one embodiment an anti-murine Fab fragment capture system was established on the CM5 biosensor. The rabbit polyclonal pAb anti M-IgG, F(ab′)₂ fragment (Cat. No. 315-005-047, Jackson Immuno Research) was immobilized according to the manufacturer's instructions using NHS/EDC chemistry. At 5 μl/min, 30 μg/ml RAMF(ab′)₂ in 10 mM sodium acetate buffer (pH 5.0) were immobilized at 10.000 RU on each flow cell. The sensor was subsequently saturated with 1 M ethanolamine pH 8.5. […] Recombinant human TnT (Roche, 37 kDa) was diluted in sample buffer at 30 nM and a concentration series was produced with 0 nM, 30 nM, 10 nM, 3.3 nM, 1.1 nM, 0.37 nM TnT concentration. The analyte concentration series were injected at 80 μl/min for 3 min association phase and the dissociation phase was monitored for 5 min. At the end of the analyte association phase a report point, “binding late” (BL) in response units (RU) was monitored. After each cycle of kinetic rates determination, the capture system was regenerated by a 15 seconds injection of 10-fold concentrated HBS-EP buffer followed by two 1 min injections of 100 mM HCl at 20 μl/min.

human cardiac troponin T [2] = biological target: T1, human cardiac troponin T; assay: Elecsys ECL sandwich immunoassay, calibrator Cal1 (recTnT), reference: biotinylated wild type Fab of MAB11-7
Procedure: (§1) The antibody Fab fragment mAb<TnT>rM-11-7(A102W)-Fab(IgG1)-Qtag was produced as a biotinylated Fab fragment, i.e., mAb<TnT>rM-11-7(A102W)-Fab(IgG1)-Qtag-Bi according to Example 7 and was tested in a sandwich immuno assay (see FIG. 6). The Fab fragment mAb<TnT>rM-11-7(A102W)-Fab(IgG1)-Qtag-Bi was compared to the biotinylated wild type Fab-fragment of MAB11-7 (i.e. comprising a CDR3 of SEQ ID NO: 16) as comprised in the commercially available Roche Elecsys® assay, catalogue number 05092744190 (Roche Diagnostics GmbH, Mannheim, Germany). These biotinylated reagents were used as reagent 1 (RI) in the corresponding assay protocol. The ruthenylated detection antibody was the one comprised in the Roche Elecsys® assay, catalogue number 05092744190 (Roche Diagnostics GmbH, Mannheim, Germany). The ruthenylated detection antibody corresponds to the Elecsys® R2 reagent.
(§2) The assay follows assay protocol 2 of the cobas e analyzers, where sample, R1 and R2 are mixed in a first step for 9 min incubation, then the streptavidin coated magnetic beads are added in a second step for another 9 min incubation. […]
(§3) Elecsys® streptavidin-coated magnetic beads were always used in combination with one of the RI and R2 reagent bottles. Samples measured included sample diluent (Diluent Universal=buffer blank,) and the TnT Elecsys® assay commercial calibrators (Call ([…] recTnT) and Cal2 ([…] recTnT)).

human cardiac troponin T [3] = biological target: T1, human cardiac troponin T; assay: Elecsys ECL sandwich immunoassay, calibrator Cal2 (recTnT), reference: biotinylated wild type Fab of MAB11-7
Procedure: as §1, §2, §3

human cardiac troponin T [4] = biological target: T1, human cardiac troponin T; assay: Elecsys ECL sandwich immunoassay, biotinylated Fab as capture reagent R1, ruthenylated commercial detection antibody; reference: biotinylated wild type Fab of MAB11-7
Procedure: as §1
Measurements were performed on a Cobas E170 Module using the Troponin T hs assay protocol with a blank control (Diluent Universal, Id. 11732277122, Diluent Multi Assay, Id. 03609987170, Roche Diagnostics GmbH, Mannheim, Germany), Call and Cal2 from Troponin T hs CalSet (Id. 05092752190, Roche Diagnostics GmbH, Mannheim, Germany) using the Troponin T hs assay specifications. […]

Kd (human cardiac troponin T [1]): < 0.01 nM
koff (human cardiac troponin T [1]): < 1e-05 s⁻¹
kon (human cardiac troponin T [1]): 1.1e+06 M⁻¹ s⁻¹
t½ [min] (complex half-life) (human cardiac troponin T [1]): > 1160 min
B4: mAb<TnT>rM-11-7 Fab A102W (Fab, V domains shown)
VH: QIQLVQSGPELKKPGETVKISCKASGYTFTDFSMHWVKQAPGKGLKWMGWINTETGEPTYADDFKGRFAFSLETSATTAYLQINNLKNEDTATYFCVRSHWMDYWGQGTSVTVSS
VL: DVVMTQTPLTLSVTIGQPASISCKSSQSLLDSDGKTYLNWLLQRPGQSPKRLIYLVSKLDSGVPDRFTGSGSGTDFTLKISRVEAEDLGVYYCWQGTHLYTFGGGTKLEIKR
notes: Murine CH1 and CL, E. coli periplasmic lysate

fold increase of Cal-1 signal against parental (human cardiac troponin T [2]): 1.7 fold
fold increase of Cal-2 signal against parental (human cardiac troponin T [3]): 1.8 fold
fold increase in sensitivity (signal to noise) against parental (human cardiac troponin T [4]): ~2 fold
B7: mAb<TnT>rM-11-7(A102W)-Fab(IgG1)-Qtag-Bi (Fab, V domains shown)
VH: B4 VH
VL: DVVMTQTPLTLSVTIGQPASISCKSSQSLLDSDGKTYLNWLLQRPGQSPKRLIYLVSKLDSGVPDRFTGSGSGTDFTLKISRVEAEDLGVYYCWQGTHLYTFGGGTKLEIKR
notes: Murine Fab (IgG1) with a Qtag, produced in HEK FreeStyle 293-F cells, site-directed conjugated to biotin with Kutzneria albida transglutaminase; also called maturated biotinylated mAb<TnT>rM-11-7(A102W)-Fab

Kd (human cardiac troponin T [1]): 5 nM
koff (human cardiac troponin T [1]): 0.0033 s⁻¹
kon (human cardiac troponin T [1]): 710000 M⁻¹ s⁻¹
t½ [min] (complex half-life) (human cardiac troponin T [1]): 3 min
B11: mAb<TnT>rM-11-7 Fab A102Y (Fab, V domains shown)
VH: B4 VH with W101Y
VL: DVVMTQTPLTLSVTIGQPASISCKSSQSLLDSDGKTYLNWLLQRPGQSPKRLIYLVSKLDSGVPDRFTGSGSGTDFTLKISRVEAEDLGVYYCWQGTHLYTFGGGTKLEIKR
notes: as for B4

The remaining lines, values behind:

B1: mAb<TnT>rM-11-7 Fab A102D (Fab, V domains shown)
VH: B4 VH with W101D
VL: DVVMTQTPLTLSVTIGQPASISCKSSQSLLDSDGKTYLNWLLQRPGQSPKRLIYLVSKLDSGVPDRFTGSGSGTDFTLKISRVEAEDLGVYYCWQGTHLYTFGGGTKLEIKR
notes: as for B4
Kd (human cardiac troponin T [1]): 15 nM
koff (human cardiac troponin T [1]): 0.029 s⁻¹
kon (human cardiac troponin T [1]): 1.9e+06 M⁻¹ s⁻¹
t½ [min] (complex half-life) (human cardiac troponin T [1]): 0.4 min

B2: mAb<TnT>rM-11-7 Fab A102R (Fab, V domains shown)
VH: B4 VH with W101R
VL: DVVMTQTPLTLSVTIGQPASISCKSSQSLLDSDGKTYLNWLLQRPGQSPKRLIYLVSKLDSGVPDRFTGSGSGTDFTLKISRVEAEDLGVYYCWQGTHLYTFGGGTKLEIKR
notes: as for B4
Kd (human cardiac troponin T [1]): 2500 nM
koff (human cardiac troponin T [1]): 0.042 s⁻¹
kon (human cardiac troponin T [1]): 16000 M⁻¹ s⁻¹
t½ [min] (complex half-life) (human cardiac troponin T [1]): 0.3 min

B3: mAb<TnT>rM-11-7 Fab A102N (Fab, V domains shown)
VH: B4 VH with W101N
VL: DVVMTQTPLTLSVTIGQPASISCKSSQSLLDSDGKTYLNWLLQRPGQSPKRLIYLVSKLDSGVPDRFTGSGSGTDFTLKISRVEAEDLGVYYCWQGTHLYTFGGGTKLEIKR
notes: as for B4
Kd (human cardiac troponin T [1]): 17 nM
koff (human cardiac troponin T [1]): 0.056 s⁻¹
kon (human cardiac troponin T [1]): 3.3e+06 M⁻¹ s⁻¹
t½ [min] (complex half-life) (human cardiac troponin T [1]): 0.2 min

B5: mAb<TnT>rM-11-7 Fab A102L (Fab, V domains shown)
VH: B4 VH with W101L
VL: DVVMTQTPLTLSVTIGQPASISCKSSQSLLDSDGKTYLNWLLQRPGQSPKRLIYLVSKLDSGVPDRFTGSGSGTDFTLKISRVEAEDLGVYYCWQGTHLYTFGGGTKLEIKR
notes: as for B4
Kd (human cardiac troponin T [1]): 13 nM
koff (human cardiac troponin T [1]): 0.009 s⁻¹
kon (human cardiac troponin T [1]): 710000 M⁻¹ s⁻¹
t½ [min] (complex half-life) (human cardiac troponin T [1]): 1 min

B6: mAb<TnT>rM-11-7 Fab A102E (Fab, V domains shown)
VH: B4 VH with W101E
VL: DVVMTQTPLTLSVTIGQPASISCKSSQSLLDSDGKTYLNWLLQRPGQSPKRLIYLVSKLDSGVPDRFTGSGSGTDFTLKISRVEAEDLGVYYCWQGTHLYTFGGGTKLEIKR
notes: as for B4
Kd (human cardiac troponin T [1]): 9 nM
koff (human cardiac troponin T [1]): 0.0098 s⁻¹
kon (human cardiac troponin T [1]): 1.1e+06 M⁻¹ s⁻¹
t½ [min] (complex half-life) (human cardiac troponin T [1]): 1 min

B8: mAb<TnT>rM-11-7 Fab A102F (Fab, V domains shown)
VH: B4 VH with W101F
VL: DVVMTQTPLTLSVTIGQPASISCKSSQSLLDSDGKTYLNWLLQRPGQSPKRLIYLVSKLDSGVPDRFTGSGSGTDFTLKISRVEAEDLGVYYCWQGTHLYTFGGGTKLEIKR
notes: as for B4
Kd (human cardiac troponin T [1]): 1 nM
koff (human cardiac troponin T [1]): 0.0012 s⁻¹
kon (human cardiac troponin T [1]): 900000 M⁻¹ s⁻¹
t½ [min] (complex half-life) (human cardiac troponin T [1]): 10 min

B9: mAb<TnT>rM-11-7 Fab A102I (Fab, V domains shown)
VH: B4 VH with W101I
VL: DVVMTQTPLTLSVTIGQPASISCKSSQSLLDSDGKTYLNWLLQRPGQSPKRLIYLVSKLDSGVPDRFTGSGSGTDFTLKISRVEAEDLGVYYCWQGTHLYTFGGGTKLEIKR
notes: as for B4
Kd (human cardiac troponin T [1]): 18 nM
koff (human cardiac troponin T [1]): 0.032 s⁻¹
kon (human cardiac troponin T [1]): 1.7e+06 M⁻¹ s⁻¹
t½ [min] (complex half-life) (human cardiac troponin T [1]): 0.4 min

B10: mAb<TnT>rM-11-7 Fab A102H (Fab, V domains shown)
VH: B4 VH with W101H
VL: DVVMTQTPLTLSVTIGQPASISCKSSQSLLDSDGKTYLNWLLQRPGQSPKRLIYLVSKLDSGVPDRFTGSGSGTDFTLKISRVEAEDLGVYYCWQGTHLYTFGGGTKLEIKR
notes: as for B4
Kd (human cardiac troponin T [1]): 8 nM
koff (human cardiac troponin T [1]): 0.0069 s⁻¹
kon (human cardiac troponin T [1]): 830000 M⁻¹ s⁻¹
t½ [min] (complex half-life) (human cardiac troponin T [1]): 2 min
